Source: patent US9089565B2, “Compositions and methods for causing neurite outgrowth” (MEDICAL RESEARCH COUNCIL, priority 2009, dated 2015)

Tested on: NgR1
Experiment: Phosphorylation of endogenous NgR1 (upper band, immunoblotting) in RA-treated SH-SY5Y cells
Type: cell-based, human
Settings: BDNF treatment 24 hours
Experimental: FIG. 1. BDNF promotes neurite outgrowth of RA-treated SH-SY5Y, and induces phosphorylation of NgR1. (A) SH-SY5Y cells were incubated with indicated reagents. Cell images were taken with phase contrast microscopy. (B) Number of cells extending neurite-like structures of more than 40 μm and total cell number were counted from images taken in (A). More than 300 cells were examined in each sample. The proportion of cells extending neurite-like structures of more than 40 μm was indicated as a percentage of total cell number. An average of three experiments is shown. Error bars indicate S. E. between experiments. Data were analysed with student's t test. (C) Whole cell extracts were prepared from RA-treated SH-SY5Y cells after incubation with or without BDNF for 24 hours, and were analysed by SDS-PAGE. Immunoblotting was performed with the indicated antibodies. (D) Whole cell extract prepared from cells treated with both RA and BDNF was incubated with the indicated reagents for 1 hour at 37° C. Immunoblotting was performed with anti-NgR1 antibody. (E) RA-treated SH-SY5Y cells were incubated with BDNF in the presence or absence of one of the following: PKC inhibitor—500 nM Gö6983 or Gö6976; PKA inhibitor—2 μM KT5720 or a PKA inhibitor peptide 14-22; or either 500 nM or 1 μM of a casein kinase inhibitor, for 24 hours. Whole cell extracts prepared from these cells were analysed by SDS-PAGE. Immunoblotting was performed with anti-NgR1 antibody.
SH-SY5Y cells were cultured in Ham's F12 medium with 10% foetal bovine serum at 37° C. in 5% CO2 and 95% air. Passage numbers between 15 and 21 were used in experiments described in this paper. Further passages induce spontaneous differentiation and cells tend to extend neurites without BDNF (data not shown). For RA treatment, the cells are seeded (20,000 cells/well) on collagen IV coated 4 well chamber slides. After 24 hours culture, medium was changed to Ham's F12 medium containing 10 μM RA and 10% foetal bovine serum. Medium was changed to fresh medium on day 3 and cells were used for experiments after 5 days culture. Encinas et al. (18) reported that RA-treated SH-SY5Y cells initiate apoptosis after withdrawal of serum only when the cells are cultured at low density. The cell density used in this paper was higher than that in the paper by Encinas et al. (18) and cell death due to depletion of serum or BDNF was not significant. In this paper, the SH-SY5Y cells treated with RA for 5 days are called RA-treated SH-SY5Y. For BDNF treatment, the RA-treated SH-SY5Y cells were washed with serum-free Ham's F12 medium and incubated with 25 ng/ml BDNF in serum-free Ham's F12 medium for 24 hours. As a control (RA alone), the RA-treated SH-SY5Y cells were incubated with serum-free Ham's F12 alone for 24 hours.
Cells were scraped off from dishes and washed with PBS twice, and then resuspended in PBS containing 0.1% Triton X100 and phosphatase inhibitor cocktail (Roche) and EDTA-free protease inhibitor cocktail (Roche). After incubation for 15 min on ice, samples were centrifuged at 14,000×g for 20 min at 4° C. The supernatants containing 30 μg of proteins were analysed by SDS-PAGE and blotted to PVDF membrane. The PVDF membrane was incubated in blocking buffer (5% skimmed milk, 0.4% Triton X-100 in PBS) for 1 hour, first antibody diluted in the blocking buffer and appropriate secondary antibody labelled with horse radish peroxidase. Bound antibodies were visualised with ECL or ECL Plus kit (GE healthcare).

B1: BDNF: brain-derived neurotrophic factor, member of the neurotrophin nerve growth factor family, purchased from Merck (protein, UniProt P23560 19-247, looked up)
Neurotrophic factor BDNF …: APMKEANIRGQGGLAYPGVRTHGTLESVNGPKAGSRGLTSLADTFEHVIEELLDEDQKVRPNEENNKDADLYTSRVMLSSQVPLEPPLLFLLEEYKNYLDAANMSMRVRRHSDPARRGELSVCDSISEWVTAADKKTAVDMSGGTVTVLEKVPVSKGQLKQYFYETKCNPMGYTKEGCRGIDKRHWNSQCRTTQSYVRALTMDSKKRIGWRFIRIDTSCVCTLTIKRGR
upper band of NgR1 (phosphorylated NgR1): increased
